Experimental data taken from article PMC6122969.

What follows are binders tested against HLA-A*02:01 on T2 cells (human (endogenous in T2)) (assay: flow cytometry on cells).

Time for which complexes with HLA-A*02:01 lasted, > 4 h:
LTLLGTLWGA [p34 peptide … from PCDHGA6], SVLWLGALGL [p35 peptide … from C20orf141], FLGPWPAAS [p14 peptide … from the LRPAP1 signal peptide], VIIKPLVWV [p55 peptide … from APCS]
